T1: CD20 (UniProt P11836 1-297)
T1 chain: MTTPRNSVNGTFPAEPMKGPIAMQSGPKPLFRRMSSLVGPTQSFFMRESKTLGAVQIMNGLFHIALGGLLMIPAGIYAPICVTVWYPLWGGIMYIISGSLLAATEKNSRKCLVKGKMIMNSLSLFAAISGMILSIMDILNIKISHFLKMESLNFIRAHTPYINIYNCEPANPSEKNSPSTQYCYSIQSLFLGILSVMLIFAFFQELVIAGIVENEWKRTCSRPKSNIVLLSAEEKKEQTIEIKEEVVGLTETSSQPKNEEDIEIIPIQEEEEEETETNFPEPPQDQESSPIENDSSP

B1: Leu16 (antibody, V domains shown)
VH: EVQLQQSGAELVKPGASVKMSCKASGYTFTSYNMHWVKQTPGQGLEWIGAIYPGNGDTSYNQKFKGKATLTADKSSSTAYMQLSSLTSEDSADYYCARSNYYGSSYWFFDVWGAGTTVTVSS
VL: DIVLTQSPAILSASPGEKVTMTCRASSSVNYMDWYQKKPGSSPKPWIYATSNLASGVPARFSGSGSGTSYSLTISRVEAEDAATYYCQQWSFNPPTFGGGTKLEIK
B2: Rituximab (antibody, V domains shown)
VH: QVQLQQPGAELVKPGASVKMSCKASGYTFTSYNMHWVKQTPGRGLEWIGAIYPGNGDTSYNQKFKGKATLTADKSSSTAYMQLSSLTSEDSAVYYCARSTYYGGDWYFNVWGAGTTVTVSS
VL: QIVLSQSPAILSASPGEKVTMTCRASSSVSYIHWFQQKPGSSPKPWIYATSNLASGVPVRFSGSGSGTSYSLTISRVEAEDAATYYCQQWTSNPPTFGGGTKLEIK
B3: Hybrid (antibody, V domains shown)
VH: QVQLQQPGAELVKPGASVKMSCKASGYTFTSYNMHWVKQTPGRGLEWIGAIYPGNGDTSYNQKFKGKATLTADKSSSTAYMQLSSLTSEDSAVYYCARSNYYGSSYWFFDVWGAGTTVTVSS
VL: QIVLSQSPAILSASPGEKVTMTCRASSSVNYMDWFQQKPGSSPKPWIYATSNLASGVPVRFSGSGSGTSYSLTISRVEAEDAATYYCQQWSFNPPTFGGGTKLEIK

Legend:
CD20 [1] = target: T1, CD20; assay: bio-layer interferometry; scFv, Avg of 3 runs
CD20 [2] = target: T1, CD20; assay: bio-layer interferometry; scFv, Run 1
CD20 [3] = target: T1, CD20; assay: bio-layer interferometry; scFv, Run 3
CD20 [4] = target: T1, CD20; assay: bio-layer interferometry; scFv, Run 2

| Binder | Kd (CD20 [1]) | Kd (CD20 [2]) | Kd (CD20 [3]) | Kd (CD20 [4]) |
| --- | --- | --- | --- | --- |
| B1 | 138 nM | 157 nM | 131 nM | 127 nM |
| B2 | 119 nM | – | 122 nM | – |
| B3 | 84.4 nM | 75.5 nM | 82.2 nM | 95.5 nM |

— US20230084763A1 (published 2023)
